Test results: US20250163176A1, “MONOCLONAL ANTIBODY AGAINST TROP2 AND USE THEREOF” (INSTITUTE OF MEDICAL BIOTECHNOLOGY, CHINESE ACADEMY OF …, priority 2022, published 2025)

T1: Trop2 (Homo sapiens, UniProt P09758)
T1 sequence (P09758 27-323): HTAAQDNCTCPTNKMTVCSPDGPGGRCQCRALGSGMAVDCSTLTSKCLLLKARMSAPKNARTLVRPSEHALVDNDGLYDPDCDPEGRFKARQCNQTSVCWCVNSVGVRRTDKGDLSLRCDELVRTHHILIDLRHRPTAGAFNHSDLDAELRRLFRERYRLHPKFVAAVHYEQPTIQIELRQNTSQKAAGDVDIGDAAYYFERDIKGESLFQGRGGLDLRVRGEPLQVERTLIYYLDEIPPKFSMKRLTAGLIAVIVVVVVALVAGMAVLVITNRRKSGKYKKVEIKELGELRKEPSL

T2: Trop2 antigen (Homo sapiens, UniProt P09758)
T2 sequence (P09758 27-323): T1 sequence (P09758 27-323)

B1: antibody: mouse-derived anti-Trop2 monoclonal antibody (IgG1, Kappa) from hybridoma Y1636-1, CGMCC No. 18167; VL SEQ ID NO:1, VH SEQ ID NO:9 (antibody, V domains shown)
VH: MEWSGVFIFLLSVTADVHSQVQLQQSGAELVRPGTSVKISCKASGYTFTNYWLGWVKQRPGHGLEWIGNIFPGGGYTNYNEKFKGKAILTADTSSSTAYMQLSSLTSEDSGVYFCAREGVMDYWGQGTTLTVSS
VL: MVSTPQFLVFLLFWIPASRGDILLTQSPAILSVSPGERVSFSCRASQNIGTSIHWYQQRTNGFPRLLIKYASESISGIPSRFSGSGSGTDFTLSINSVESEDIADYYCQQSYSWPFTFGSGTKLEIK
modifications: mouse IgG1/kappa constant regions, no entry
B2: LDM: antitumor antibiotic lidamycin: protein LDP (SEQ ID NO:37) with bound active enediyne (AE) chromophore of Formula I (protein)
chain: APAFSVSPASGLSDGQSVSVSVSGAAAGETYYIAQCAPVGGQDACNPATATSFTTDASGAASFSFVVRKSYTGSTPEGTPVGSVDCATAACNLGAGNSGLDLGHVALTFG
modifications: bound enediyne chromophore

Key:
[1] = molecular target: T1, Trop2; experiment: antibody titer detected by indirect ELISA; format: binding; details: FIG. 2
Description: Hybridoma cell lines for detection was continuously cultured before and after cryopreservation. The antibody titer in the cell supernatant was detected by indirect ELISA.

[2] = test system: tumor tissues; format: in vivo, mice
Description: BXPC-3, MDA-MB-231, and NIH3T3 cells were inoculated in the axilla of mice at 6×10^4 cells/mouse. When the tumor volume reached […], an anti-Trop2 antibody was labeled using a Dylight 680 antibody kit. The anti-Trop2 antibody was injected via tail vein into mice at 20 mg/kg. In vivo imaging was performed at 30 min, 1 h, 2 h, 3 h, 4 h, 6 h, 8 h, 10 h, 12 h, 14 h, 24 h, 30 h, 36 h, 48 h, 60 h, 72 h, 84 h, 96 h, 108 h, 120 h, 132 h, 144 h, 156 h, 168 h, 192 h, 216 h, 240 h, and 264 h. (FIG. 11)

[3] = test system: Trop2-positive cells HCC-827; experiment: confocal immunofluorescence, endocytosis of antibody; format: cell-based, human; details: HCC-827, confocal microscopy, FIG. 9
Description: HCC-827 cells in logarithmic growth phase were prepared into a single-cell suspension, after cell counting, which was inoculated into a cell slide at 1×10^4 cells/well/200 μL, and then incubated at 37° C. for 24 h. An anti-Trop2 antibody at 10 μg/mL, 200 μL/well, was added. For the binding of antibody to the cell surface, cells were incubated after being added with antibody IMB1636 at 4° C. for 30 min. The cells were collected for washing three times with PBS, fixed with 4% paraformaldehyde (200 μL/well) for 15 min, washed three times with PBST, permeabilized with 0.2% Triton-X100 (200 μL+100 mL PBS) for 10 min, washed three times with PBST, blocked with 5% BSA at 37° C. for 30 min. The cells were added with secondary antibody (goat anti-mouse AF488) at 3 μL+1.5 mL PBST, 200 μL/well, and incubated at 37° C. for 30 min, washed five times with PBST, stained with DAPI for 15 min, washed three times with PBST, and dropwise added with an anti-fluorescence quenching agent for observation under a confocal microscope.
For the case of endocytosis of antibody, cells were added with antibody IMB1636 and incubated at 37° C. for 2 h. […] Other steps were the same as above. Co-localization of antibody IMB1636 with lysosomes was observed. (FIG. 9)

[4] = test system: human lung squamous cell carcinoma tumor tissues; experiment: human tumor tissue chip detection; format: binding; details: FIG. 12
Description: All tumor tissue chips used in this experiment were purchased from Shanghai Outdo Biotech Co., Ltd. The main experimental steps included: slide baking, dewaxing, antigen retrieval, endogenous peroxidase blocking, primary antibody incubation, secondary antibody incubation, diaminobenzidine (DAB) developing, hematoxylin counterstaining, and slide blocking. (FIG. 12)

[5] = test system: BxPC-3; experiment: binding ability of antibody to tumor cells by immunofluorescence; format: cell-based; details: BxPC-3 highly expressing Trop2, immunofluorescence, FIG. 8
Description: NIH3T3, MDA-MB-231, and BXPC-3 cells were cultured on cell slides at 1×10^4 cells/well and incubated at 37° C. for 24 h. The cells after incubation were fixed with 4% paraformaldehyde for 30 min, followed by washing three times with pre-cooled PBS at 4° C., blocking with 1% BSA in PBST solution at 4° C. overnight, and adding with purified anti-Trop2 antibody at a concentration of 10 μg/mL and incubating at 4° C. overnight. An SP2/0 ascites served as a negative control. The cells were washed three times with PBST pre-cooled to 4° C., added with rhodamine-labeled goat anti-mouse IgG secondary antibody diluted 1:200 at room temperature for incubation for 1.5 h in the dark. The cells after incubation were washed three times with PBST, and one drop of 4′,6-diamidino-2-phenylindole (DAPI) (1 mg/mL) was added to each well for incubation for 10 min. Observations and photographs were taken under a fluorescence microscope. (FIG. 8)

[6] = molecular target: T2, Trop2 antigen; experiment: antibody-antigen affinity analysis by Biacore method; format: binding; details: antibody coupled to CM5 chip, FIG. 6
Description: Amino of an anti-Trop2 antibody was coupled to a CM5 chip, with pH of 5.0, an antibody concentration of 10 μg/mL, sample injection time of 60 s, and flow rate of 10 μL/min, and a coupling amount of 378.6 RU. Trop2 antigen at different concentrations (0, 0.814, 1.628, 3.256, 6.512, 13.025, 26.05, and 52.1 μg/mL) was taken for flowing over the chip with a sample injection time of 60 s, flow rate of 30 μL/min, dissociation time of 600 s, and regeneration conditions of glycine-HCl, and pH 1.5 (100 s, 30 μL/min) to obtain Biacore affinity graphs and affinity constant. (FIG. 6)

[7] = test system: tumor cell membrane that highly expresses Trop2 antigen; experiment: binding ability of antibody to tumor cells by flow cytometry; format: cell-based; details: FIG. 10
Description: BXPC-3, MDA-MB-231, and NIH 3T3 cells were separately collected at 5×10^6 cells/EP tube, washed with 100 μL of PBS containing 2% FBS pre-cooled to 4° C., and resuspended in 100 μL of PBS containing 2% FBS. Anti-Trop2 antibody at concentrations of 3, 1, 0.3, 0.1, 0.03, 0.01, and 0.003 μg/mL was separately added at 100 μL/tube, with SP2/0 ascite as a negative control. The cells were incubated at 4° C. for 1.5 h, washed with PBS containing 2% FBS, and added with 200 μL of fluorescein isothiocyanate (FITC)-labeled goat anti-mouse IgG secondary antibody (diluted 1:200) for incubation at 4° C. for 1 h in the dark. The cells were washed three times with PBS, and detected by flow cytometry. (FIG. 10)

[8] = molecular target: T2, Trop2 antigen; experiment: antibody-antigen affinity constant by ELISA; format: binding; details: indirect ELISA, FIG. 7
Description: A Trop2 antigen was diluted to three dilutions (0.1 μg/mL, 0.2 μg/mL, and 0.4 μg/mL) and coated onto ELISA plates. An anti-Trop2 monoclonal antibody was diluted to concentrations of (1, 0.2, 0.04, 0.008, 0.0016, 0.00032, 0.000064, and 0.0000128 μg/mL). An antigen-antibody reaction curve was determined using an indirect ELISA. […] The unit of Ka is M^−1. In this formula, [Ab] represents the antibody concentration corresponding to A=½Amax when the antigen concentration is [Ag]; [Ab]t represents the antibody concentration corresponding to A=½Amax when the antigen concentration is [Ag]t; [Ag] and [Ag]t represent the antigen concentrations; and n is the dilution factor between [Ag] and [Ag]t. (FIG. 7)

[9] = test system: A431; experiment: cytotoxic activity against tumor cells cultured in vitro (CCK-8); format: cell-based; details: A431, 48 h culture
Description: (§1) Tumor cells in the logarithmic growth phase after subculture were selected and prepared into a single-cell suspension and cell counting was performed. The cell concentration was adjusted to 3×10^3 cells/well, and the cells were inoculated into a 96-well plate with 80 μL/well. After 24 h of incubation, 20 μL of anti-Trop2-IgG, LDM, and Anti-Trop2-IgG-LDM diluted to different concentrations were added, with three parallel wells for each concentration. After 48 h of culture, 10 μL of CCK-8 reagent was added to each well in the dark, followed by shaking for 3 min and incubation in an incubator for 1 h. The 96-well plate was taken and shaken for 2 min, and the OD value at 450 nm was measured using a microplate reader. In addition to the drug-treated groups at different concentrations, three parallel wells each for the drug-free control group and the cell-free blank group were set up.

[10] = test system: KYSE150; experiment: as above; format: cell-based; details: KYSE150, 48 h culture
Description: as §1

[11] = test system: ECA109; experiment: as above; format: cell-based; details: ECA109, 48 h culture
Description: as §1

[12] = test system: A549; experiment: as above; format: cell-based; details: A549, 48 h culture
Description: as §1

Molecule	titer of antibody [1]	targeting of tumor tissues in vivo ([2]; mice, in vivo imaging, FIG. 11)	time remaining in the tumor tissue ([2]; mouse, in vivo)	endocytosis of the antibody [3]	binding to human tumor tissue [4]	membrane-binding activity with tumor cell membrane [5]	ka [6] [M⁻¹ s⁻¹]	kd [6] [s⁻¹]	affinity activity with tumor cell membrane [7]	affinity constant Ka [8] [M⁻¹]	IC50 [9] [nM]	IC50 [10] [nM]	IC50 [11] [nM]	IC50 [12] [nM]
B1	8000000	highly target tumor tissues	over 11 days	efficiently endocytose	highly and specifically bind	high membrane-binding activity	1.057e+06	0.0007297	high affinity activity	3.9e+10				
B2											0.007 ± 0.002	0.995 ± 0.008	0.445 ± 0.034	0.169 ± 0.017
